Read-outs that look alike come from different tables or passages of the source.
T1: human LAG-3 (expressed on 293FF cells) (human, UniProt P18627 23-525)
T1 construct: whole, on cells; also called CD223
T1 sequence (looked up): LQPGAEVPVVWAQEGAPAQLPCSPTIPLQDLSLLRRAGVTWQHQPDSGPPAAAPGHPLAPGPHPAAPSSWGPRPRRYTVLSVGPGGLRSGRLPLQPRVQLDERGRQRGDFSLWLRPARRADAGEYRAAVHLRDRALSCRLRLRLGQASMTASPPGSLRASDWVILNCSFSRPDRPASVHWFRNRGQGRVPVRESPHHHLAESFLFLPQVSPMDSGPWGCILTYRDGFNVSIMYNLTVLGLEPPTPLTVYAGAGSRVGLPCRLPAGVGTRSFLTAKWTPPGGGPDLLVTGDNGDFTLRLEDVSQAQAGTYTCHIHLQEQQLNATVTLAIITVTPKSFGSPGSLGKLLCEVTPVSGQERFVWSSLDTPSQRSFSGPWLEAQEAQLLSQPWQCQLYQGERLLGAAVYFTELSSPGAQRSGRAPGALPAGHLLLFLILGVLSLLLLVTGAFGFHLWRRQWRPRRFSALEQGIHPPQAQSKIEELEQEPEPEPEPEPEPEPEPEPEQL


Tests used:
[1] = target: T1, human LAG-3 (expressed on 293FF cells); experiment: FACS on 293FF cells stably transfected with human LAG-3
Method: (§1) The binding of bispecific antibodies was analyzed by FACS using cell lines stably transfected with human LAG-3 or rhesus LAG-3, or transiently transfected with human PD-1 or cynomolgus PD-1. […] IgG specific binding was measured by FACS using a 8-step, 5-fold dilution starting at 50 ug/ml. A goat-anti-human PE was used as secondary detection antibody. Cells w/o staining or only secondary detection antibody were included as negative assay controls.

[2] = target: T2, human PD-1 (expressed on cells) (human, UniProt Q15116 25-288); experiment: cell-based or functional assay
T2 sequence (Q15116 25-288): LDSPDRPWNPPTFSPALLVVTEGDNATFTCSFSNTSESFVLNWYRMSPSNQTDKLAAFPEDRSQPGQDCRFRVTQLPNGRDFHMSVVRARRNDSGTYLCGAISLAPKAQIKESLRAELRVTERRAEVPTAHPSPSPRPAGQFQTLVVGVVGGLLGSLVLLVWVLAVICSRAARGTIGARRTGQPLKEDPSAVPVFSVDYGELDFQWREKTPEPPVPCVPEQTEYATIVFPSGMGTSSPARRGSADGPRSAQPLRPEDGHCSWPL

[3] = target: T2, human PD-1 (expressed on cells); experiment: cell-based or functional assay; remark: listed apart in the source
[4] = target: cynomolgus PD-1 (expressed on 293FF cells) (cynomolgus, UniProt B0LAJ3 25-288); experiment: FACS on 293FF cells transiently transfected with cynomolgus PD-1
cynomolgus PD-1 (expressed on 293FF cells), sequence (B0LAJ3 entry or part of it limits assumed): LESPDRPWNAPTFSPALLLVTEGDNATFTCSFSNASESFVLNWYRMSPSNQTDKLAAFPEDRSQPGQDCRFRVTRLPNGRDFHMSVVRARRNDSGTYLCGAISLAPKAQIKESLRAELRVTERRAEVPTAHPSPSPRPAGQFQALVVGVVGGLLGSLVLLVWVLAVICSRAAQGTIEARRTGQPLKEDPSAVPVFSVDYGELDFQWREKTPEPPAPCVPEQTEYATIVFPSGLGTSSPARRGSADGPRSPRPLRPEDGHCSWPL
Method: as §1

[5] = target: T2, human PD-1 (expressed on cells); experiment: cell-based or functional assay; remark: listed apart in the source

Binder	binding result [1]	EC50 (read off the curve); PD-1/PD-L1 reporter assay, luciferase fold induction [2]	AUC relative to positive control, PD-1/LAG-3 reporter assay [3]	EC50 (nM) PD-1/LAG-3 reporter assay [3]	binding result [4]	EC50 (read off the curve); PD-1/PD-L1 reporter assay, luciferase fold induction [5]
PD-1xLAG-3 bispecific antibody SEQ ID NO: 1 × SEQ ID NO: 11 (bispecific antibody, IgG1; common light chain; also called PB1; not shown: hinge (IgG1)) heavy (part 1 of 2) 1: not shown heavy (part 2 of 2) 1: not shown heavy (part 1 of 2) 2: QVQLQESGPGLVRPSETLSLTCTVSGGSISSYSWSWIRQPPGKGLEWIGYIDYSGSTNYNPSLKSRVTISVDTSKTQFSLKLSSVSAADTAVYYCAKDLLYKWNYVEGFDIWGQGTTVTVSSASTKGPSVFPLAPSSKSTSGGTAALGCLVKDYFPEPVTVSWNSGALTSGVHTFPAVLQSSGLYSLSSVVTVPSSSLGTQTYICNVNHKPSNTKVDKRV heavy (part 2 of 2) 2: not shown light: not shown	binds	~0.5 µg/mL	215%	19.1 nM	binds	–
PD-1xLAG-3 bispecific antibody SEQ ID NO: 5 × SEQ ID NO: 11 (bispecific antibody, IgG1; common light chain; also called PB13; not shown: hinge (IgG1)) heavy (part 1 of 2) 1: not shown heavy (part 2 of 2) 1: not shown heavy (part 1 of 2) 2: QVQLQESGPGLVRPSETLSLTCTVSGGSISSYSWSWIRQPPGKGLEWIGYIDYSGSTNYNPSLKSRVTISVDTSKTQFSLKLSSVSAADTAVYYCAKDLLYKWNYVEGFDIWGQGTTVTVSSASTKGPSVFPLAPSSKSTSGGTAALGCLVKDYFPEPVTVSWNSGALTSGVHTFPAVLQSSGLYSLSSVVTVPSSSLGTQTYICNVNHKPSNTKVDKRV heavy (part 2 of 2) 2: not shown light: not shown	binds	~0.7 µg/mL	218%	10.1 nM	binds	–
PD-1xLAG-3 bispecific antibody SEQ ID NO: 1 × SEQ ID NO: 14 (bispecific antibody, IgG1; common light chain; also called PB4; not shown: hinge (IgG1)) heavy (part 1 of 2) 1: not shown heavy (part 2 of 2) 1: not shown heavy (part 1 of 2) 2: EVQLVQSGSELKKPGASVKVSCKASGYTFTTNALNWVRQAPGQGLEWMGWINTHTGNPTYAQGFIGRFVFSLDTSVSTAYLQIRSLKAEDTAVYYCAREPNWGVYFDYWGQGTLVTVSSASTKGPSVFPLAPSSKSTSGGTAALGCLVKDYFPEPVTVSWNSGALTSGVHTFPAVLQSSGLYSLSSVVTVPSSSLGTQTYICNVNHKPSNTKVDKRV heavy (part 2 of 2) 2: not shown light: not shown	binds	–	271%	9.96 nM	binds	~1 µg/mL
PD-1xLAG-3 bispecific antibody SEQ ID NO: 6 × SEQ ID NO: 14 (bispecific antibody, IgG1; common light chain; also called PB10; PD-1xLAG-3 bispecific antibody 2; not shown: hinge (IgG1)) heavy (part 1 of 2) 1: not shown heavy (part 2 of 2) 1: not shown heavy (part 1 of 2) 2: EVQLVQSGSELKKPGASVKVSCKASGYTFTTNALNWVRQAPGQGLEWMGWINTHTGNPTYAQGFIGRFVFSLDTSVSTAYLQIRSLKAEDTAVYYCAREPNWGVYFDYWGQGTLVTVSSASTKGPSVFPLAPSSKSTSGGTAALGCLVKDYFPEPVTVSWNSGALTSGVHTFPAVLQSSGLYSLSSVVTVPSSSLGTQTYICNVNHKPSNTKVDKRV heavy (part 2 of 2) 2: not shown light: not shown	binds	–	246%	18 nM	binds	~1 µg/mL

From patent publication US20220363761A1 (MERUS N V, published 2022)
